# Results from publication PMC4240464 (The Febs Journal, 2013).
# T1: CCL3 (human, UniProt P10147 24-92)
# T1 sequence: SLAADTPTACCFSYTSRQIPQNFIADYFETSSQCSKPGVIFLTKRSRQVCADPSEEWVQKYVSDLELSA
# T2: CCL5 (wild type) (human, UniProt P13501 24-91)
# T2 sequence: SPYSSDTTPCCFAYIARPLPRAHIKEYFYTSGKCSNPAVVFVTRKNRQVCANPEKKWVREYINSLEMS
# T3: CCL8 (human, UniProt P80075 24-99)
# T3 sequence: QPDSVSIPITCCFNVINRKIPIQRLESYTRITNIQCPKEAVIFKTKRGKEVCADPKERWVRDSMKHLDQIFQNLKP
# T4: CCL15 (human, UniProt Q16663)
# T4 sequence: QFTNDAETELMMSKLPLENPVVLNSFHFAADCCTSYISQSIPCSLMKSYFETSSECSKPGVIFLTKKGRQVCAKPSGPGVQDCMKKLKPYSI
# T5: CCL16 (human, UniProt O15467 24-120)
# T5 sequence: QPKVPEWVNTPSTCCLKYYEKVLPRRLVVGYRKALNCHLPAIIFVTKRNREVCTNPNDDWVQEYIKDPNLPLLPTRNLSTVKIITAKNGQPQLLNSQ
# T6: CCL17 (human, UniProt Q92583 24-94)
# T6 sequence: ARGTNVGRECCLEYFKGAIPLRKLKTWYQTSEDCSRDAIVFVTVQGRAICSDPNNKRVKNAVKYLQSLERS
# T7: CCL22 (human, UniProt O00626 25-93)
# T7 sequence: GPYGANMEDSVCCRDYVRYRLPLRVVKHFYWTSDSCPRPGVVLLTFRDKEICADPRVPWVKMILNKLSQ
# T8: CCL23 (human, UniProt P55773)
# T8 sequence: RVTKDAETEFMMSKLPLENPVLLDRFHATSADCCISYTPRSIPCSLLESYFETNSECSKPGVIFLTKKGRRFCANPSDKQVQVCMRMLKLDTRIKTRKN
# T9: CCL24 (human, UniProt O00175 27-119)
# T9 sequence: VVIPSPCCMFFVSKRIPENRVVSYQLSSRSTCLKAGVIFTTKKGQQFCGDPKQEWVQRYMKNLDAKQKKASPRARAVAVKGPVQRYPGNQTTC
# T10: CCL26 (human, UniProt Q9Y258 24-94)
# T10 sequence: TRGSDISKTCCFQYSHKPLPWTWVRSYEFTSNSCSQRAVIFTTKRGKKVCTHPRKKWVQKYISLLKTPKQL
# T11: CCL3L1 (human, UniProt P16619 24-93)
# T11 sequence: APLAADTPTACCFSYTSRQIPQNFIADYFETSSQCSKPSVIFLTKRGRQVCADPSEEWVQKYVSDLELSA
# B1: Evasin-4 (untagged recombinant) (natural protein)
# chain: EVPQMTSSSAPDLEEEDDYTAYAPLTCYFTNSTLGLLAPPNCSVLCNSTTTWFNETSPNNASCLLTVDFLTQDAILQENQPYNCSVGHCDNGTCAGPPRHAQCW
# modifications: appears to be highly glycosylated (six putative N-glycosylation sites)
# Columns and labels:
# Test in all cases: cell-based or functional assay
# CCL3 = target: T1, CCL3
# CCL5 (wild type) = target: T2, CCL5 (wild type)
# CCL7 = CCL7 (human, UniProt P80098 24-99)
# CCL8 = target: T3, CCL8
# CCL11 = CCL11 (human, UniProt P51671 24-97)
# CCL15 = target: T4, CCL15
# CCL16 = target: T5, CCL16
# CCL17 = target: T6, CCL17
# CCL22 = target: T7, CCL22
# CCL23 = target: T8, CCL23
# CCL24 = target: T9, CCL24
# CCL26 = target: T10, CCL26
# CCL3L1 = target: T11, CCL3L1
# Chain of CCL11 (P51671 24-97): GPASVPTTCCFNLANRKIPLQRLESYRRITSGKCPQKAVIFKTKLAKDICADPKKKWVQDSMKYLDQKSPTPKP
# Chain of CCL7 (P80098 24-99): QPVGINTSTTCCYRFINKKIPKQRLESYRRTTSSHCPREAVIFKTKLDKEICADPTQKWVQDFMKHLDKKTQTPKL
binder,measurement,setting,value
B1,"IC50, inhibition of chemotaxis of 300.19CCR1 cells to CCL3 (EC80 1 nM)",CCL3,2 nM
same,"IC50, inhibition of chemotaxis of L1.2/CCR5 cells to CCL3 (EC80 40 nM)",CCL3,4.4 nM
same,"IC50, inhibition of chemotaxis of 300.19/CCR1 cells to CCL5 (EC80 1 nM)",CCL5 (wild type),2.2 nM
same,"IC50, inhibition of chemotaxis of L1.2/CCR5 cells to CCL5 (EC80 1 nM)",CCL5 (wild type),4.8 nM
same,"IC50, inhibition of chemotaxis of monocytes to CCL5 (EC80 10 nM)",CCL5 (wild type),1.5 nM
same,"IC50, inhibition of chemotaxis of eosinophils to CCL7 (EC80 10 nM)",CCL7,5 nM
same,"IC50, inhibition of chemotaxis of L1.2/CCR3 cells to CCL8 (EC80 5 nM)",CCL8,3.6 nM
same,"IC50, inhibition of chemotaxis of eosinophils to CCL8 (EC80 10 nM)",CCL8,3.1 nM
same,"IC50, inhibition of chemotaxis of L1.2/CCR3 cells to CCL11 (EC80 1 nM)",CCL11,14 nM
same,"IC50, inhibition of chemotaxis of eosinophils to CCL11 (EC80 1 nM)",CCL11,4.9 nM
same,"IC50, inhibition of chemotaxis of L1.2/CCR3 cells to CCL15 (EC80 100 nM)",CCL15,88 nM
same,"IC50, inhibition of chemotaxis of 300.19/CCR1 cells to CCL16 (EC80 250 nM)",CCL16,304 nM
same,"IC50, inhibition of chemotaxis of L1.2/CCR4 cells to CCL17 (EC80 1 nM)",CCL17,69 nM
same,"IC50, inhibition of chemotaxis of L1.2/CCR4 cells to CCL22 (EC80 1 nM)",CCL22,38 nM
same,"IC50, inhibition of chemotaxis of 300.19/CCR1 cells to CCL23 (EC80 10 nM)",CCL23,2.2 nM
same,"IC50, inhibition of chemotaxis of L1.2/CCR3 cells to CCL24 (EC80 10 nM)",CCL24,95 nM
same,"IC50, inhibition of chemotaxis of L1.2/CCR3 cells to CCL26 (EC80 10 nM)",CCL26,68 nM
same,"IC50, inhibition of chemotaxis of eosinophils to CCL26 (EC80 50 nM)",CCL26,101 nM
same,"IC50, inhibition of chemotaxis of L1.2/CCR5 cells to CCL3L1 (EC80 1 nM)",CCL3L1,3.5 nM
